From publication PMC3247736

System: IgM (human)
Test: QCM
Conditions: 500 mg/L IgM vs 100 ug/L IgE; 5'-biotin; 8.1 mM Na2HPO4, 1.1 mM KH2PO4, 1 mM MgCl2, 2.7 mM KCl, 138 mM NaCl, pH 7.4, 37 C; BSA-blocked avidin-coated gold crystal

In the case of “GGGGCACGTTTATCCGTCCCTCCTAGTGGCGTGCCCC [D17.4 anti-IgE aptamer]”, the binding signal (% of IgE response) is reported as less than 5.
